Earlier results, collected in PMC9441699 (Frontiers in Cellular and Infection Microbiology, 2022).

Test system: pseudotyped SARS-CoV

B1: Lactoferrin: antiviral milk protein (protein, UniProt P02788 20-710, looked up)
Lactotransferrin: GRRRSVQWCAVSQPEATKCFQWQRNMRKVRGPPVSCIKRDSPIQCIQAIAENRADAVTLDGGFIYEAGLAPYKLRPVAAEVYGTERQPRTHYYAVAVVKKGGSFQLNELQGLKSCHTGLRRTAGWNVPIGTLRPFLNWTGPPEPIEAAVARFFSASCVPGADKGQFPNLCRLCAGTGENKCAFSSQEPYFSYSGAFKCLRDGAGDVAFIRESTVFEDLSDEAERDEYELLCPDNTRKPVDKFKDCHLARVPSHAVVARSVNGKEDAIWNLLRQAQEKFGKDKSPKFQLFGSPSGQKDLLFKDSAIGFSRVPPRIDSGLYLGSGYFTAIQNLRKSEEEVAARRARVVWCAVGEQELRKCNQWSGLSEGSVTCSSASTTEDCIALVLKGEADAMSLDGGYVYTAGKCGLVPVLAENYKSQQSSDPDPNCVDRPVEGYLAVAVVRRSDTSLTWNSVKGKKSCHTAVDRTAGWNIPMGLLFNQTGSCKFDEYFSQSCAPGSDPRSNLCALCIGDEQGENKCVPNSNERYYGYTGAFRCLAENAGDVAFVKDVTVLQNTDGNNNEAWAKDLKLADFALLCLDGKRKPVTEARSCHLAMAPNHAVVSRMDKVERLKQVLLHQQAKFGRNGSDCPDKFCLFQSETKNLLFNDNTECLARLHGKTTYEKYLGPQYVAGITNLKKCSTSPLLEACEFLRK
Question: With B1 as the molecule, how does the “inhibition of pseudotyped SARS-CoV” value read?
Answer: The value was 50%.
